The values below come from patent US20210047435A1 (Janssen / Centocor, published 2021).

For the experiment, the target named is T1, LTBR (form used for the KD not stated) (human, UniProt P36941 31-227, limits assumed).
T1 construct: neither the method nor the LTBR construct is described; also called human LTBR; TNFRSF3
Briefly: method not stated; stapled scFv variant against LTBR.

Changes are numbered by the printed parent chain. Names and notes keep the numbering of the source.

T1 sequence (P36941 31-227 limits assumed): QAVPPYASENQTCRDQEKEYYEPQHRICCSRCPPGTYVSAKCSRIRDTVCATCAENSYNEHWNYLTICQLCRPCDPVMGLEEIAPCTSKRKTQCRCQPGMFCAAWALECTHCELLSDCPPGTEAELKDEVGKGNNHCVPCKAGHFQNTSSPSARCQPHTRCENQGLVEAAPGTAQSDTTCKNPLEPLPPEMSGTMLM

B1: stapled scFv (VL3 Y36F S49Y F87Y) BHA10 (VH-VL) (scFv)
scFv: QVQLVQSGAEVKKPGSSVKVSCKASGYTFTTYYLHWVRQAPGCGLEWMGWIYPGNVHAQYNEKFKGRVTITADKSTSTAYMELSSLRSEDTAVYYCARSWEGFPYWGQGTTVTVSSGGGSGGGSGCPPCGGGGDIQMTQSPSSLSASVGDRVTITCKASQNVGINVAWFQQKPGKAPKSLIYSASYRYSGVPSRFSGSGSGTDFTLTISSLQPEDFATYYCQQYDTYPFTFGCGTKVEIK
By Kd is commonly meant the free concentration of one partner at which half of the binding sites on the other are occupied at equilibrium, for simple one-to-one binding. Higher therefore signals a looser complex. On to B1, for which the equilibrium dissociation constant (Kd) is roughly 60 nM.

B2: stapled scFv (VH CDR1 Y33A) BHA10 (VH-VL) (scFv)
scFv: B1 scFv with Y33A, F169Y, Y182S, Y220F
B2 displayed an equilibrium dissociation constant (Kd) of roughly 600 nM.
